Data as given in doi:10.1101/2025.09.07.674715.

Biological target: GAPS4a of GAPS4^MAVP-R (Vibrio parahaemolyticus MAVP-R) (Vibrio parahaemolyticus MAVP-R)
Experiment: SEC-MALS

## GAPS4b of GAPS4^MAVP-R (Vibrio parahaemolyticus MAVP-R) (natural protein)
  stoichiometry N (GAPS4b per GAPS4a (2:2)): 1
